B1: CPEB3 Ribozyme (parent)
chain: GGGGGCCACAGCAGAAGCGUUCACGUCGCGGCCCCUGUCAGAUUCUGGUGAAUCUGCGAAUUCUGCUGU

In this series the parent is B1. Nature of the series: self-cleavage, relative activity (ratio to wild type); higher = more cleavage; co-transcriptional.
Take A51C A59G: the self-cleavage is 0.96. Next, G50C A60C: 0.34; G50C A60U: 0.456; A51G G58C: 1.01. As for A51G G58U, the figure is 1.01. Consider A51G A59U, for which the self-cleavage was 0.859.

Take A51G C57U: the self-cleavage amounted to 0.321.

For A51G C57A, the self-cleavage amounted to 0.399. Next, U49G U55G: 0.819; U49G U55C: 0.814; A52G A60C: 0.336.

With A52G A60G, the self-cleavage worked out at 0.922. As for G50C A51U, the figure is 0.942; as for A52G C63G, 0.865. As for A52G C63A, the self-cleavage turned out to be 0.907. Take A52G C63U: the self-cleavage was 1. As for U49G U69G, the figure is 1.02; as for G50U G56A, 0.928; as for G50U G56U, 0.91. Next, U49G U67A: 1.04; U49G U67G: 1.05.

Turning to U49C U55A, the self-cleavage was 0.936. Turning to U49C U55C, the self-cleavage was 0.795. As for A51C U62C, the self-cleavage worked out at 0.76. For A51C U62A, the self-cleavage was determined as 0.901. For the variant A51U U64G, the self-cleavage came to 0.826.

A51U U64A: the self-cleavage is 0.799. Next, A51U U64C: 0.788. Next, U49G C54U: 0.972. As for A52C U62A, the self-cleavage worked out at 0.882. Next, A52C U62C: 0.811; U49G G56A: 0.966. Regarding U49G G56U, the self-cleavage is 0.978.

U49G G56C: the self-cleavage is 0.709. As for U49C G68C, the figure is 0.998; as for U49C G68U, 1.03; as for U49C G68A, 1.01. As for G50C G58U, the figure is 0.995. G50C G58C: the self-cleavage is 0.963. Next, U49G U64A: 0.985.

Turning to A52C U67A, the self-cleavage was 0.963.

For U49G G65C, the self-cleavage came out at 0.607. Take U49G G65U: the self-cleavage is 0.787.

Consider G50C G65A, for which the self-cleavage was 0.885.

With G50C G65C, the self-cleavage came out at 0.585.

As for A52C U69G, the self-cleavage was 1.05. As for A52C U69C, the figure is 1.05. Next, A51G C54A: 0.854. In the case of A51G C54U, the self-cleavage was determined as 0.986. For A51G C54G, the self-cleavage is 0.858.

Regarding A52C U61G, the self-cleavage is 0.67.

As to A52C U61C, the self-cleavage was 0.759. Consider A52C U61A, for which the self-cleavage was 0.893.

With A51U C57G, the self-cleavage was determined as 0.238.

Regarding A51U C57U, the self-cleavage turned out to be 0.388.

In the case of G50C U53C, the self-cleavage came out at 0.866.

As for G50C U53G, the self-cleavage turned out to be 0.654. Turning to G50A C54A, the self-cleavage was 0.81. Next, U49G C57U: 0.282; U49G C57A: 0.425.

Regarding U49G C57G, the self-cleavage was 0.284. As for U49G U61A, the figure is 0.921. In the case of U49G U61C, the self-cleavage was 0.802. Next, A52C U64C: 0.842; A52C U64G: 0.829. Consider A51U G58U, for which the self-cleavage was found to be 0.954. As for G50C C66U, the figure is 0.981; as for G50C C66A, 0.728. As for G50C C66G, the figure is 0.853; as for A52C C63G, 0.688. As for A52C C63U, the figure is 0.973. With A51C C54G, the self-cleavage is 0.585. On to A51C C54U, for which the self-cleavage came to 0.928.

Consider A51U U69A, for which the self-cleavage came to 1.01. Next, A51U U69C: 1.07; A51U U69G: 1.06. As for A52G C66U, the self-cleavage turned out to be 0.971.

With A52G C66A, the self-cleavage worked out at 0.845. As to A51C G65A, the self-cleavage was determined as 0.807. Next, A51C G65C: 0.64. Regarding U49G C63G, the self-cleavage was 0.907. In the case of U49G C63A, the self-cleavage was found to be 0.952.

Take U49G C63U: the self-cleavage came to 0.994.

Take G50A G56A: the self-cleavage came out at 0.909. With G50A U53G, the self-cleavage worked out at 0.9. As for G50A U53C, the figure is 0.949; as for U49G G50A, 1.02. As for A51G A60G, the self-cleavage is 0.939. As for A51G A60U, the figure is 0.589; as for A52G C54A, 0.931; as for A52G C54U, 1.02.

For the variant A51C G68A, the self-cleavage was determined as 0.961. Take A51C G68C: the self-cleavage was determined as 0.996. As for A51C G68U, the figure is 1.01; as for A51C A60U, 0.468. A51C A60G: the self-cleavage turned out to be 0.85. On to A52C G68U, for which the self-cleavage stood at 0.979. With G50U A52U, the self-cleavage was 0.94. As for G50U A52C, the figure is 0.979; as for G50C A59U, 0.767. G50C A59C: the self-cleavage was 0.68. For the variant G50C A59G, the self-cleavage amounted to 1.03.

For the variant G50U U55C, the self-cleavage turned out to be 0.766. Next, U49C U64C: 0.907. As to A51U U61A, the self-cleavage was determined as 0.932.

As for A51U U61G, the self-cleavage turned out to be 0.772. Next, U49G A59C: 0.68; G50U C54A: 0.858; G50U C54U: 0.968.

On to A51C U53C, for which the self-cleavage worked out at 0.781.

As for A51C U53A, the self-cleavage turned out to be 0.851. As for G50A U61C, the self-cleavage came to 0.799. For the variant G50A U61A, the self-cleavage came to 0.862. As for U49G A52U, the figure is 0.986; as for U49G A52C, 0.952. In the case of G50A U62G, the self-cleavage came out at 0.959. Next, G50A U62C: 0.949. Next, G50A U62A: 0.986. Consider A51G G56U, for which the self-cleavage was determined as 0.95.

G50U A59U: the self-cleavage stood at 0.834.

As to G50U A59G, the self-cleavage stood at 1.04. Next, G50C U67C: 0.994. G50C U67G: the self-cleavage turned out to be 1.02. Next, G50C C63G: 0.738; G50C C63U: 0.97; G50C C63A: 0.813.

With U49G A60U, the self-cleavage was found to be 0.432.

U49G A60G: the self-cleavage amounted to 0.948.

In the case of A52G G56A, the self-cleavage stood at 0.983.

With A52G G56C, the self-cleavage is 0.819.

Take G50A G68C: the self-cleavage worked out at 1.02. As for G50A G68U, the self-cleavage turned out to be 1.02. Consider G50U U69A, for which the self-cleavage is 0.99.

For G50U U69C, the self-cleavage was determined as 1.09. Next, G50U U69G: 1.05. Consider A51C U61A, for which the self-cleavage stood at 0.813.

Consider G50A G58A, for which the self-cleavage came out at 1.01. Next, G50A G58U: 1.02. Next, G50A A60G: 1.02. As for G50A A60C, the figure is 0.369. Turning to G50A A60U, the self-cleavage came to 0.449. Next, A51G G65C: 0.715; A51G G65U: 0.872; A51G G65A: 0.948. As for A51G U67G, the figure is 1.01; as for A51G U67A, 0.967.

Turning to A51G U67C, the self-cleavage stood at 0.99. As for A51U U62C, the figure is 0.892. A51U U62A: the self-cleavage turned out to be 0.931. On to A51U U62G, for which the self-cleavage is 0.868. With A52C G65A, the self-cleavage is 0.88. Next, A52C G65C: 0.582. As for A52C G65U, the figure is 0.765.

Consider G50C A52C, for which the self-cleavage worked out at 0.946. Next, G50C A52G: 0.985; A51U U55A: 0.696. Regarding A51U U55C, the self-cleavage was found to be 0.561. Next, A52C C54U: 0.856; A52C C54G: 0.562; A52C C54A: 0.615. Next, A51U C54U: 0.932; A51U C54G: 0.677; G50U G65A: 0.953. Regarding G50U U64A, the self-cleavage is 0.954. Next, G50U C57U: 0.366; G50U C57A: 0.355; G50U C57G: 0.264.

Values taken from the RNAGym collection of RNA variant scans (doi:10.7554/elife.80360).
